Tests used:
BiP-Sepharose = target: T1, BiP-Sepharose (Homo sapiens, UniProt P11021); test: BiP-Sepharose extraction of proteins from patient plasma, serum, synovial fluid and mass-spectrometric identification; format: binding; conditions: Sample B6: eluate of BiP-Sepharose contacted with RA patient IV synovial fluid
T1 construct: The human BiP gene except the signal peptide encoding region was obtained from Geneart (Germany); linker […]; made in house; host or cells: HEK 293E cells, transient transfection, PABC674 vector; secreted into the medium
T1 sequence (P11021 19-654): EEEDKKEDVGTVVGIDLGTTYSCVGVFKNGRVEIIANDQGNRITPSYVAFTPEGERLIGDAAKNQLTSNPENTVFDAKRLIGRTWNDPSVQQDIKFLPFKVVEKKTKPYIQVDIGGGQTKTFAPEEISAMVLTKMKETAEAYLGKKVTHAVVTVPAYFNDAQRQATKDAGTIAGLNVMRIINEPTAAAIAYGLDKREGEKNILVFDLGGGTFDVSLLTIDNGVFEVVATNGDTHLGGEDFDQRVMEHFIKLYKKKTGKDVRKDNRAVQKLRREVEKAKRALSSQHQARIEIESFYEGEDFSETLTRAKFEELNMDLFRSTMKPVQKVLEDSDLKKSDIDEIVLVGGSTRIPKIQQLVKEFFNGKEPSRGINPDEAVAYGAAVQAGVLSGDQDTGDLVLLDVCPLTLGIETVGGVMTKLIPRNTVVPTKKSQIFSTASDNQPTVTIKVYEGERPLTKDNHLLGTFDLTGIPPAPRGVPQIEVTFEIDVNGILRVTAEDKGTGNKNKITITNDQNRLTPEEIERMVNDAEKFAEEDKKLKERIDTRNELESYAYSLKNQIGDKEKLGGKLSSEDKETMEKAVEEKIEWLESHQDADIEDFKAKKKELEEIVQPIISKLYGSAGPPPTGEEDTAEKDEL
Method: BiP was coated on CNBr-Sepharose (GE-Healthcare, Amersham Biosciences). Immobilization of BiP was performed essentially as described elsewhere in this application for NHS-Sepharose. CNBr-matrix was dissolved at 200 mg/ml in 1 mM HCl and treated the same as the NHS-matrix, except for an additional 5 minutes activation step in 1 mM HCl on a roller device before washing in this buffer. BiP was diluted in immobilization buffer (50 mM NaCl and 40 mM NaHCO3) to a concentration of 820 μg/ml. A total volume of 2 ml BiP solution (1640 μg BiP) was incubated with 360 mg beads. Negative control matrix was exposed to immobilization buffer, only. After overnight immobilization matrix was blocked with Tris and washed.
Six samples were incubated with the BiP-Sepharose, IgIV-Sepharose and the control-Sepharose: Normal pooled plasma, plasma of a patient I or of a patient II, with AL amyloidosis, serum of a patient III with RA (Rheumatoid Factor (RF) titer 682), control serum and synovial fluid of a patient IV with RA (RF titer 23). All samples were diluted 20× in HBS and applied to 200 μl beads in two volumes of 500 μl. One volume was incubated for 4 h at RT and supernatant was discarded after centrifugation (2 minutes at 1400 rpm). Subsequently, the second volume was applied to the same matrix and incubated overnight on a roller device at 4° C. […] To collect the eluates, the matrices were centrifuged and the two eluates were pooled for each sample.
Protein digests were desalted as described (Rappsilber et al., 2003), vacuum dried and dissolved in 2.5% formic acid.
For analysis of peptide mixtures, an Agilent 1100 HPLC system (Agilent Technologies) connected to a Thermo Finnigan LTQ-MS (Thermo Electron, Bremen, Germany) was used. Protein digests were injected on a trap column (Reprosil C18 RP (Dr Maisch, Germany), 20 mm×100 μm I.D.) at 5 μl/minute. Subsequently, the peptides were transferred with a split-reduced flow rate of 100 nL/minute solvent A (0.1 M acetic acid) on the analytical column (Reprosil C18 RP, 20 cm×50 μm I.D.). […] The column effluent was directly introduced into the ESI source of the mass spectrometer via a butt-connected nano-ESI emitter (New Objectives, Woburn, Mass.). The mass spectrometer was operated in the positive ion mode and parent ions were selected for fragmentation in data-dependent mode.
After mass spectrometric measurements, peak lists were generated using BioWorks software (Thermo Electron, Bremen, Germany). Protein identification was performed using Mascot software (www.matrixscience.com) by searching the IPIhuman database (version 3.24, downloaded from ftp://ftp.ebi.ac.uk/pub/databases/IPI/current) using the following settings: fully tryptic peptides, peptide tolerance 0.8 Da, MS/MS tolerance 0.9 Da, 1 missed cleavage allowed, carbamidomethyl (Cys) and oxidation (Met) as fixed and variable modification, respectively. The Scaffold software package (www.proteomesoftware.com) was used to parse the data and to filter peptides at a confidence level of 95%, allowing only protein identification with at least 2 peptides identified.

human BiP = target: T2, human BiP (Homo sapiens, UniProt P11021); test: ELISA: binding of BiP-FLAG-His to immobilized (misfolded) protein ligands; conditions: ligands coated at 5 μg/ml; 6BB peptides and oxLDL 50 μg/ml
T2 construct: The human BiP gene except the signal peptide encoding region was obtained from Geneart (Germany); linker […]; made in house; host or cells: HEK 293E cells, transient transfection, PABC674 vector; secreted into the medium
T2 sequence (P11021 19-654): as above
Method: Enzyme Linked Immunosorbent Assay for Testing of Chaperone Binding to Misfolded Proteins
Binding of chaperones to immobilized (misfolded) protein ligands was determined using an enzyme linked immuno sorbent assay (ELISA) approach. For this purpose 50 μl/well of potential ligands at indicated concentrations or coat buffer only for control and background measurement purposes, were coated overnight at 4° C. or coated for 1 h at room temperature, with motion, in 50 mM NaHCO3 pH 9.6 (coat buffer). In general, ligands were coated at 5 μg/ml, unless stated otherwise. For example, BiP binding peptides 6BB# and oxLDL were coated at 50 μg/ml. Native haemoglobin (Sigma-Aldrich, H7379), albumin, IgIV Gammagard and ovalbumin controls were prepared from lyophilized stocks. The controls were prepared by dissolving lyophilized proteins at 1 mg/ml in PBS upon resuspending by pipetting, followed by a 30 minutes period at the roller device, at room temperature. The protein solutions were centrifuged for 10 minutes at 16,000*g and diluted in coat buffer. […] After 5 washes with wash buffer followed by two washes with PBS, binding of antibodies was assessed. […] Plates were read at 450 nm. Triplicates were averaged and standard deviations calculated. […] Subsequently, sub-optimal concentrations of chaperones for binding to misfolded protein ligands are determined, and these concentrations are used for inhibition studies. […]

[1] = target: T3, human mitochondrial HSP60 (Homo sapiens, UniProt P10809); test: ELISA: binding of HSP60 to immobilized (misfolded) protein ligands
T3 construct: Dr. W. van Eden, Utrecht University; host or cells: E. coli
T3 sequence (P10809 27-573): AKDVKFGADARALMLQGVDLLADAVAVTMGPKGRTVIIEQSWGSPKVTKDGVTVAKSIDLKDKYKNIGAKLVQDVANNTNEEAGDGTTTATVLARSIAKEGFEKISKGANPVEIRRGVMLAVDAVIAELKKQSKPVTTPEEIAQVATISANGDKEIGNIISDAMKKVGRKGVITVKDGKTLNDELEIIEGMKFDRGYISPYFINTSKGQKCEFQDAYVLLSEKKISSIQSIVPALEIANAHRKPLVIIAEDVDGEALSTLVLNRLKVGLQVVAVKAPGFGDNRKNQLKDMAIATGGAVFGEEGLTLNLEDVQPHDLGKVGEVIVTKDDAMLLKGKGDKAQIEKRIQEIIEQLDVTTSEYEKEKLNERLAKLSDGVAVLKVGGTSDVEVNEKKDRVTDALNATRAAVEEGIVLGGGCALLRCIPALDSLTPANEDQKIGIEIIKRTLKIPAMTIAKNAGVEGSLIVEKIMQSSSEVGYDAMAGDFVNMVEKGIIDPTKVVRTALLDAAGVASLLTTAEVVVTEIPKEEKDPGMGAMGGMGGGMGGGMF
Method: Recombinant human HSP60 with N-terminal His-tag was a kind gift of Dr. R. van der Zee and Prof. Dr. W. van Eden (Institute of Infectious Diseases and Immunology, Faculty of Veterinary Medicine, Utrecht University, Utrecht, The Netherlands), and was supplied in lyophilized form. The HSP60 was produced in E. coli and purified using Nickel-Sepharose. The HSP60 was lyophilized from 20-40 mM ammonium-bicarbonate solution, after purification, and stored at −20° C. The construct lacks the mitochondrial signal sequence. […] Before use, the lyophilized protein is dissolved at room temperature at 1 mg/ml in 20-40 mM NH4HCO3, resulting in a pH of 7.0. Aliquots are stored at −20° C. or −80° C. The mitochondrial HSP60 is a functional dimer of heptamers (MW(HSP60 monomer)=˜58 kDa), and is involved in multimer protein assembling and aids in transport of unfolded proteins across membranes. For the binding studies, at two occasions separate HSP60 solutions were prepared originating from the same batch of purified protein, lyophilized in separate Eppendorf cups.
Binding of chaperones to immobilized (misfolded) protein ligands was determined using an enzyme linked immuno sorbent assay (ELISA) approach. […] After 5 washes with wash buffer followed by two washes with PBS, binding of antibodies was assessed. […] Plates were read at 450 nm. […]

Row | # of peptides in sample A# (BiP-Sepharose) | Binding of concentration series of BiP to coated ligand (human BiP) | Binding of concentration series of HSP60 to coated ligand [1] | Molecule
1 | 1 | – | – | Immunoglobulin heavy constant mu (protein) GSASAPTLFPLVSCENSPSDTSSVAVGCLAQDFLPDSITFSWKYKNNSDISSTRGFPSVLRGGKYAATSQVLLPSKDVMQGTDEHVVCKVQHPNGNKEKNVPLPVIAELPPKVSVFVPPRDGFFGNPRKSKLICQATGFSPRQIQVSWLREGKQVGSGVTTDQVQAEAKESGPTTYKVTSTLTIKESDWLGQSMFTCRVDHRGLTFQQNASSMCVPDQDTAIRVFAIPPSFASIFLTKSTKLTCLVTDLTTYDSVTISWTRQNGEAVKTHTNISESHPNATFSAVGEASICEDDWNSGERFTCTVTHTDLPSPLKQTISRPKGVALHRPDVYLLPPAREQLNLRESATITCLVTGFSPADVFVQWMQRGQPLSPEKYVTSAPMPEPQAPGRYFAHSILTVSEEEWNTGETYTCVVAHEALPNRVTERTVDKSTGKPTLYNVSLVMSDTAGTCY
2 | – | did not bind | did not bind | ovalbumin: native chicken ovalbumin control (protein) GSIGAASMEFCFDVFKELKVHHANENIFYCPIAIMSALAMVYLGAKDSTRTQINKVVRFDKLPGFGDSIEAQCGTSVNVHSSLRDILNQITKPNDVYSFSLASRLYAEERYPILPEYLQCVKELYRGGLEPINFQTAADQARELINSWVESQTNGIIRNVLQPSSVDSQTAMVLVNAIVFKGLWEKAFKDEDTQAMPFRVTEQESKPVQMMYQIGLFRVASMASEKMKILELPFASGTMSMLVLLPDEVSGLEQLESIINFEKLTEWTSSNVMEERKIKVYLPRMKMEEKYNLTSVLMAMGITDVFSSSANLSGISSAESLKISQAVHAAHAEINEAGREVVGSAEAGVDAASVSEEFRADHPFLFCIKHIATNAVLFFGRCVSP
